Results on 30 sequences are retold here after the supplement of paper PMC9170038.

In this data set the test system is MS2 coat protein. Put plainly: apparent KD of MS2 coat protein; designed switch direction (-1 OFF switch, 1 ON switch): -1; higher = weaker reporter binding. The method in brief: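 Three titration conditions were used: no input, 200 uM small-molecule ligand, and an oligonucleotide input. In each, SNAP-549-labelled MS2 coat protein was raised from 0.7 or 1.5 nM, doubling, to 3 µM over designed RNA switches transcribed on Illumina chips by stalled E. coli RNA polymerase. Curve fits of normalised cluster fluorescence gave values whose per-design median over clusters is the apparent KD.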

[1] abbreviates: Eterna round: R95, input ligand: microRNA oligo, concentration not stated.
Setting [2] is: Eterna round: R95, input ligand: FMN 200 uM.
The mark [3] stands for this setting: Eterna round: R95, input ligand: none.
Setting [4] is: input ligand: microRNA oligo, concentration not stated.

On to “GGGAAGAACCAACAAGUUAACAUGAGGAUCACCCAUGUUGACUUCAUGUGCACGCAAAGCGUGCAAGCUCGUCUUAU [AK-miRNA-r3-15] (Eterna round: R97, puzzle: Sensor, turn-off variant 1)”, for which the “apparent KD of MS2 coat protein” value by setting is: (input ligand: FMN 200 uM) 17.9 nM; (input ligand: none) 17.2 nM.
“GGGACACAUGAGGAUCACCCAUGUGAGGAUAUGUUAGUUUCGGCCAAAGCCGAAAUUAACAGAAGGCACAUACC [JR_Exclusion1_Sub020] (puzzle: Exclusion 1)”: the “apparent KD of MS2 coat protein” value under setting [1] is 35.7 nM.
Turning to “GGGAUGUCAGGAUAUACAUGAGGAUCACCCAUGUAGAGAUAAGAUAGGGAAAGAGUAGGUAGAAGGGACGAGAG [JR_Exclu3_Sub044] (puzzle: Exclusion 3)”, the “apparent KD of MS2 coat protein” value came to 22 nM under setting [2], 19.9 nM under setting [1] and 24.5 nM under setting [3].
Regarding “GGGAUGUGAGGAUAUCGAGGUGCAAAGCACCUAAAAGAAAACGAGAAGGCACAUGAGGAUCACCCAUGUAAUAC [Xeinle] (puzzle: Exclusion 4)”, the “apparent KD of MS2 coat protein” value is 105 nM under setting [2], 26 nM under setting [1] and 26 nM under setting [3].
For “GGGCCCGGAGGAUAUACAAUGCGCGCGCGAAAGUGUGUGUUACAUGAGGAUCACCCAUGUAGAAGGCCGGGCCC [-39.9, -36.7 kcal A 24%, 6,0] (Eterna round: R97, puzzle: Exclusion 2)”, the “apparent KD of MS2 coat protein” value (input ligand: FMN 200 uM) is 39.4 nM and the “apparent KD of MS2 coat protein” value (input ligand: none) stood at 16.7 nM.
On the same counts, the results for “GGGCCCGGAGGAUAUACAUGAGGAUCACCCAUGUAGGGCCCGGGUAUUUUUGGGCCCUGUAGAAGGCCGGGCCC [-41.6, -38.7 kcal, A 19%, 5c,0] (Eterna round: R97, puzzle: Exclusion 3)” are 13 nM and 12.6 nM.
Turning to “GGGUGACAUGAGGAUCACCCAUGUCAGGAUAUGAUUCUGCUUGGGAAACCGAGUAGAAUCAGAAGGGACAUCCC (Eterna round: R97, puzzle: Exclusion 1)”, the “apparent KD of MS2 coat protein” value (input ligand: FMN 200 uM) is 324 nM and the “apparent KD of MS2 coat protein” value (input ligand: none) stood at 54.3 nM.
Consider “GGGUGACAUGAGGAUCACCCAUGUCAGGAUAUUGAUCGUGAUCGGAAAUGAUCGUGAUCGAGAAGGGACUGCCC [-27.4, -26.4 kcal, A 27% sequence 2] (Eterna round: R97, puzzle: Exclusion 1)”, for which the “apparent KD of MS2 coat protein” value amounted to 224 nM (input ligand: FMN 200 uM) and 52 nM (input ligand: none).
For “GGGUUACAUGAGGAUCACCCAUGUGAGGAUAUGAUACUAUGUACUUCGGUACAUAGUAUCAGAAGGCACAUCCC [Ex1-3: 20] (puzzle: Exclusion 1)”, the “apparent KD of MS2 coat protein” value under setting [1] was found to be 31.4 nM.
Consider “GGUACUAACACGAGAGUGUUAGUACUAUAAGCUUGUGUUACAUGAGGAUCACCCAUGUCCUCAUAGGCUCGUCUUAA [Mat - Sensor v3 - Turn-off var 2 - D81] (puzzle: Sensor v3, turn-off variant 2)”, for which the “apparent KD of MS2 coat protein” value by setting is: under setting [2], 82.4 nM; under setting [1], 61 nM; under setting [3], 82.4 nM.
Turning to “GGUACUAUCACCUGAGUGGUAGUGCAAUAAGCUUGUGAUACAUGAGGAUCACCCAUGUCCUCAUUUGCUCGUCUUAU [JL-sv3-2.26 JL mod] (puzzle: Sensor v3, turn-off variant 2)”, the “apparent KD of MS2 coat protein” value is 533 nM under setting [2], 516 nM under setting [1] and 839 nM under setting [3].
Consider “GGUACUCAAAGAGUACCAAUACGAACAUGAGGAUCACCCAUGUAGGAUAUGCUACUCAAAGAGUAGCAGAAGGAUAUGAACCUU [Far Half Aptamer v9] (Eterna round: R96, puzzle: Exclusion NG 3)”, for which the “apparent KD of MS2 coat protein” value (input ligand: FMN 200 uM) came out at 22.5 nM, the “apparent KD of MS2 coat protein” value under setting [4] worked out at 15.5 nM and the “apparent KD of MS2 coat protein” value (input ligand: none) stood at 23.8 nM.
For “GGUACUCAAAGAGUACCAAUACGAACAUGAGGAUCACCCAUGUAGGAUAUGCUACUCAAAGAGUAGCAGAAGGAUAUGAGCCUC [Far Half Aptamer v11] (Eterna round: R96, puzzle: Exclusion NG 3)”, the “apparent KD of MS2 coat protein” value was determined as 663 nM (input ligand: FMN 200 uM), 319 nM under setting [4] and 334 nM (input ligand: none).
“GGUACUCAUGUGAGGAUAUGCUCGAAUGCAGACGAGCAGAAGGUACAUGAGGAUCACCCAUGUACCAUAAAGUA [Eternabot (Original) Solution 1] (Eterna round: R97, puzzle: Brourd's mod of Exclusion 4)”: the “apparent KD of MS2 coat protein” value is, setting by setting: (input ligand: FMN 200 uM) 23.6 nM; (input ligand: none) 13.1 nM.
For “GGUAGUAUGAGUAGUCCUCAUUGAAGAGAUUAGUAAGAAACAUGAGGAUCACCCAUGUUAGAACAAGCUUUUGCUCA [JR_Sv3TOV2_Sub004] (puzzle: Sensor v3, turn-off variant 2)”, the “apparent KD of MS2 coat protein” value runs as follows: under setting [2], 113 nM; under setting [1], 45.7 nM; under setting [3], 142 nM.
Consider “GGUCAAGAACAGCUCCGCGCUGCCCUUGACCGCUCAUUUACAUGAGGAUCACCCAUGUUUUUUGCUUGUCUUGUUUC [Bebiesgebe] (puzzle: Sensor v3, turn-off variant 2)”, for which the “apparent KD of MS2 coat protein” value worked out at 20 nM under setting [2], 127 nM under setting [1] and 22.6 nM under setting [3].
As for “GGUCAAGAGCAGAUCCGCGCUGCUAUUGACCGCUCAUUUACAUGAGGAUCACCCAUGUUUUUUGCUCGUCUUAUUAC [Biinedmaa] (puzzle: Sensor v3, turn-off variant 2)”, the “apparent KD of MS2 coat protein” value reads like this: under setting [2], 19.4 nM; under setting [1], 77.7 nM; under setting [3], 18.7 nM.
As to “GGUCAGACGGUAGGAUAUCCAUAUCGAGUGACCCUUUUAUAACAUGAGGAUCACCCAUGUCGGUGGGAGAAGGGCCGUACGGCG [salish99_ExNG02_R04_003] (Eterna round: R96, puzzle: Exclusion NG 2)”, the “apparent KD of MS2 coat protein” value was 445 nM (input ligand: FMN 200 uM), 304 nM under setting [4] and 401 nM (input ligand: none).
On the same counts, the results for “GGUCAUAGGUAAGGAUAUGAAGAUCUGGUGGUGACAUGAGGAUCACCCAUGUGAAAACGAUGAGAUCAGAAGGUACAAUAUGAA [AK ExNG2-4.1] (Eterna round: R96, puzzle: Exclusion NG 2)” are 72.7 nM, 49.1 nM and 86.4 nM.
Take “GGUCCACAUGAGGAUCACCCAUGUAAUAACAUGCAGCGCAGGAAGGAUAUGCCCGAACAAAGCCAGCAGAAGGUCCAUUAACAU [Eternabot solution 7] (Eterna round: R96, puzzle: Exclusion NG 3)”: the “apparent KD of MS2 coat protein” value (input ligand: FMN 200 uM) came to 166 nM, the “apparent KD of MS2 coat protein” value under setting [4] stood at 84.5 nM and the “apparent KD of MS2 coat protein” value (input ligand: none) amounted to 128 nM.
For “GGUCCACGAGGAUAUCGAUUUUAGUACAUGAGGAUCACCCAUGUUGUCCAGGUUUCGAUUCGAGAAGGCGUGGGCC [LRO-Ex5-03] (puzzle: Exclusion 5)”, the “apparent KD of MS2 coat protein” value under setting [1] was 20.3 nM.
Take “GGUCGUUUAGUGAGGAUAUGCAGCGUCAUAGCGCAGCAGAAGGCACAUGAGGAUCACCCAUGUCCUCCCAAAAG [Eternabot (L1) Solution 9] (Eterna round: R97, puzzle: Brourd's mod of Exclusion 4)”: the “apparent KD of MS2 coat protein” value was determined as 253 nM (input ligand: FMN 200 uM) and 18.9 nM (input ligand: none).
On the same counts, the results for “GGUCUACAUGAGGAUCACCCAUGUAAGGAUAUCGUCACUGGAGCCUCGGCUCCAGUGACGAGAAGGUGCAUAAU [E1/11-A2] (Eterna round: R97, puzzle: Exclusion 1)” are 48.9 nM and 36.6 nM.
On to “GGUCUGCGAGGAUAUACAUGAGGAUCACCCAUGUGCGAGUUACUAGUGAGGUCGGUUGGUAGAAGGCGCGGACG [JL-ex3-2.09 salish99 mod] (puzzle: Exclusion 3)”, for which the “apparent KD of MS2 coat protein” value under setting [2] amounted to 69.3 nM, the “apparent KD of MS2 coat protein” value under setting [1] came out at 52.3 nM and the “apparent KD of MS2 coat protein” value under setting [3] was 32.9 nM.
With “GGUGAAGCAGGAUAUGUGCUGGCAUACAUGAGGAUCACCCAUGUCAUGUAGGAACCACGUAUAGAAGGGCUUCACC [Exclusion 5 (FMN-MS2 slide v.10)] (Eterna round: R97, puzzle: Exclusion 5)”, the “apparent KD of MS2 coat protein” value is, setting by setting: (input ligand: FMN 200 uM) 50.7 nM; (input ligand: none) 28.1 nM.
“GGUGAGCGAGGAUAUACAUGAGGAUCACCCAUGUGAGAGAAUAAAGUGAGGAAGAAAAGUAGAAGGCGCGAACG [Mat - Exclusion 3 - Mod of Salish D47] (puzzle: Exclusion 3)”: the “apparent KD of MS2 coat protein” value was 91.4 nM under setting [2], 37.8 nM under setting [1] and 11.9 nM under setting [3].
With “GGUGAGCUAGGAUAUGCUUUGGGAACGCAUUCCUUCGAUAAACUUGAGGAUCACCCAAGUAGAAGGAGCUUGCC [salish99_ex2_r4_029] (Eterna round: R97, puzzle: Exclusion 2)”, the “apparent KD of MS2 coat protein” value reads like this: (input ligand: FMN 200 uM) 158 nM; (input ligand: none) 34 nM.
Take “GGUGAGCUAGGAUAUGCUUUGGGCUCGCAUUCCUUCGAUAAACUUGAGGAUCACCCAAGUAGAAGGAGCUUGCC [salish99_ex2_r4_032] (Eterna round: R97, puzzle: Exclusion 2)”: the “apparent KD of MS2 coat protein” value turned out to be 23.3 nM (input ligand: FMN 200 uM) and 15.8 nM (input ligand: none).
Regarding “GGUGCGUUUGUGAGGAUAUGCUGGUCCUUGGAUCCGCAGAAGGCACAUGAGGAUCACCCAUGUGGUGUCGUACC [salish99_Bmod_Ex4_034] (puzzle: Brourd's mod of Exclusion 4)”, the “apparent KD of MS2 coat protein” value under setting [1] was determined as 199 nM.
Turning to “GGUGUACUAGUCAGGAUAUGAUUAAUACCAAAGAAUCAGAAGGGACAUGAGGAUCACCCAUGUAAAGAAGGAGA [BmEX4 A.23] (Eterna round: R97, puzzle: Brourd's mod of Exclusion 4)”, the “apparent KD of MS2 coat protein” value by setting is: (input ligand: FMN 200 uM) 158 nM; (input ligand: none) 32.5 nM.
